{
  "source": "paper PMC10897178",
  "about": "“FANCJ DNA helicase is recruited to the replisome by AND-1 to ensure genome stability” (EMBO Reports, 2024)",
  "binders": {"B1": {"name": "GST-SepB α-helix bundle WT (domain or fragment, human, UniProt O75717 718-824, looked up)", "chain": "IATEKGQMEEQFWRSVIFHNHLDYLAKNGYEYEESTKNQATKEQQELLMKMLALSCKLEREFRCVELADLMTQNAVNLAIKYASRSRKLILAQKLSELAVEKAAELT", "notes": "AND-1 (WDHD1), human, α-helix bundle of the SepB domain, amino-acid residues 718-824; Cloned into pGEX-2T; also called GST-SepB α-helix bundle chimeric protein; source: E. coli Rosetta pLysS (DE3), purified (Glutathione Sepharose 4B)"}},
  "target": "T1, Flag-tagged FANCJ D736H (human, UniProt Q9BX63 1-1249, D736H)",
  "T1 construct": "FANCJ (BRIP1), human, full-length; missense variant found in invasive breast carcinoma; source: HEK 293T, transiently transfected, purified (anti-Flag M2 agarose)",
  "T1 sequence (looked up)": "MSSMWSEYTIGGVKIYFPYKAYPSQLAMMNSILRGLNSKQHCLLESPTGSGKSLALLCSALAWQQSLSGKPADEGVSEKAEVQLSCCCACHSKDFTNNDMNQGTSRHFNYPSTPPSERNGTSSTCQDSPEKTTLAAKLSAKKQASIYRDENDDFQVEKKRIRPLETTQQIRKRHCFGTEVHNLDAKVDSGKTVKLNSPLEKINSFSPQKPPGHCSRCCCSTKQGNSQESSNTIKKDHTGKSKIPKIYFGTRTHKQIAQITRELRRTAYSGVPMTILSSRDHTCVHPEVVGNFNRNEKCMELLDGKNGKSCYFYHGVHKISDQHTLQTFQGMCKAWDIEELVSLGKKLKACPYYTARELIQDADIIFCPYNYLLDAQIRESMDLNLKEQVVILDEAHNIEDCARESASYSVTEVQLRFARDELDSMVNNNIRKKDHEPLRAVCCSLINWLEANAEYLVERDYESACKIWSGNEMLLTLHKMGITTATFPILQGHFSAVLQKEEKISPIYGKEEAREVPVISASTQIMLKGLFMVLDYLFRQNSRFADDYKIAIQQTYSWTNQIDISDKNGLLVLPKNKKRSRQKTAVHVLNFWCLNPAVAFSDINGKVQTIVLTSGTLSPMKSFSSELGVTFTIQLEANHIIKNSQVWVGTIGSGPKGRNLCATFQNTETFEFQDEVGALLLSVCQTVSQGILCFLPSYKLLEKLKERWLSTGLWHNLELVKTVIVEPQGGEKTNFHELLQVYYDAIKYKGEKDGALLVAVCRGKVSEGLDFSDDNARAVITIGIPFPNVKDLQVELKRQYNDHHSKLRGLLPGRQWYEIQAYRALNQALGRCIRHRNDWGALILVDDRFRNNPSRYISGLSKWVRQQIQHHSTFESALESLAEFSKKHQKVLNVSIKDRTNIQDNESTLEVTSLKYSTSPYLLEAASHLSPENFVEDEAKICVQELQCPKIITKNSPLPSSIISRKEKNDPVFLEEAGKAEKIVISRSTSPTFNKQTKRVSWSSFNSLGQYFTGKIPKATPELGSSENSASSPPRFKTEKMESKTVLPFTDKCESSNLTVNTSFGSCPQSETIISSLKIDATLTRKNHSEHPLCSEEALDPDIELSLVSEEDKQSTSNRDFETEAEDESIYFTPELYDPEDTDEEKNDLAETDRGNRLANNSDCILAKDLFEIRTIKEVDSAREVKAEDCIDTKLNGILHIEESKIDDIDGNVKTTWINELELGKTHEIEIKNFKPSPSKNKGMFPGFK",
  "experiment": "pull-down; GST-SepB α-helix bundle (0.5 µg) on Glutathione Sepharose 4B beads, purified Flag-FANCJ (0.5 µg) added; 25 mM Tris-HCl pH 7.5, 150 mM NaCl, 0.1% Triton X-100, 4 °C; washes with 300 mM NaCl, 1% Triton X-100; Western blot",
  "conditions": "both partners purified",
  "data": [
    {"binder": "B1", "values": [
      {"measurement": "binding result", "value": "binds"}
    ]}
  ]
}
